The results in this text go back to patent US20260139049A1 (PEDIATRIC IMMUNITY AND HEALTHCARE GUANGZHOU BIOTECHNOLOGY, published 2026).

A word on the EC50: it is the concentration needed to bring the measured effect to its halfway point.

Experiment [1] concerns the target T1, human CLDN6 (human, UniProt P56747 1-220).
T1 construct: whole, on cells; four-transmembrane protein; also called claudin-6; HEK293T-CLDN6
T1 sequence (looked up): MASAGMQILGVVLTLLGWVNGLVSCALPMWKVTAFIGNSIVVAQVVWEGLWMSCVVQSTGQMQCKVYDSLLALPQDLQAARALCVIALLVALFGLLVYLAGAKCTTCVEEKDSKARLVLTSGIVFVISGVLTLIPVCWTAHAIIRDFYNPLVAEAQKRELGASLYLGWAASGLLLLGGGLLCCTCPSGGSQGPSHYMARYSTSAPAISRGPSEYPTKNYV
The experiment can be described thus: FACS on HepG2 tumour cells; target on the cells taken as CLDN6. The method, then: (§1) 50 μL of an antibody to be tested was added to a 96-well plate, then 1×10⁵ cells were added to each well, and incubation was conducted at 4° C. for 1 h. Cells were washed three times with PBS. […] Finally, cells were washed three times with PBS, and signals were read using FACS. A binding capacity of the antibody to each tumor cell was analyzed based on detection data.

Experiment [2] deals with T1, human CLDN6. The experiment can be described thus: FACS on PA-1 tumour cells; target on the cells taken as CLDN6. The method, then: as §1
In experiment [3] the target is T2, monkey CLDN6 (Cyno CLDN6) (monkey (Cyno)).
T2 construct: whole, on cells; also called CHO-K1-Cyno CLDN6
The experiment can be described thus: FACS on CHO-K1-Cyno CLDN6 cells.

For another experiment, the target named is T3, human CLDN3 (human, UniProt O15551 1-220).
T3 construct: whole, on cells; also called HEK293T-CLDN3
T3 sequence (looked up): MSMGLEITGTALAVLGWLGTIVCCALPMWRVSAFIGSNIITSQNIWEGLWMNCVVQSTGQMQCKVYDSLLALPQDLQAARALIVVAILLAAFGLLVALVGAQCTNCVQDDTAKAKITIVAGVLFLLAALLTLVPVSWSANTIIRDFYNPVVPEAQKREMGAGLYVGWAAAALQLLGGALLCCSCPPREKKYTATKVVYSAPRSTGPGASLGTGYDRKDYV
Description: FACS on 293T-CLDN3 cells, 10 µg/mL. The method, then:
50 μL of an antibody to be tested was added to a 96-well plate, then 1× 10⁵ cells were added to each well, and incubation was conducted at 4° C. for 1 h. Cells were washed three times with PBS. […] Finally, cells were washed three times with PBS, and signals were read using FACS. Binding capacities of the antibody to CLDN9, CLDN3, and CLDN4 were analyzed separately based on detection data.

Experiment [4] has as its target T1, human CLDN6. Description: FACS on 293T-CLDN6 cells, 10 µg/mL.
Experiment [5] has as its target T1, human CLDN6. The experiment can be described thus: FACS on HepG2 tumour cells; target on the cells taken as CLDN6. The method, then:
The specific binding of a chimeric antibody to a tumor cell was detected by FACS, and an EC50 value was calculated accordingly to evaluate an inhibitory effect of the chimeric antibody on the tumor cell.
as §1
The source holds these as a separate data set.

Experiment [6] addresses T1, human CLDN6. The experiment is described as above. The method, then: as §1
This is another data set of the same source.

B1: IMAB027 (antibody, human IgG1, kappa, V domains shown)
VH: EVQLQQSGPELVKPGASMKISCKASGYSFTGYTMNWVKQSHGKNLEWIGLINPYNGGTIYNQKFKGKATLTVDKSSSTAYMELLSLTSEDSAVYYCARDYGFVLDYWGQGTTLTVSS
VL: IVLTQSPAIMSASPGEKVTITCSASSSVSYLHWFQQKPGTSPKLWVYSTSNLPSGVPARFGGSGSGTSYSLTISRMEAEDAATYYCQQRSIYPPWTFGGGTKLEIKR
notes: variable regions of mAb206-LCC on human IgG1 constant regions; also called benchmark antibody; control antibody
As for B1, the concentration giving a half-maximal response (EC50) turned out to be 0.959 µg/mL in the experiment with human CLDN6 [1]; 0.141 µg/mL with human CLDN6 [2]; 0.131 µg/mL in experiment [3]; 0.192 µg/mL in the experiment with human CLDN6 [5]; 0.583 µg/mL in the experiment with human CLDN6 [6]. Moreover, the Geom.Mean with human CLDN3 is 151; with human CLDN6 [4] it was 23600.
